Measurements reported in patent publication US20250277031A1 (BEIJING HANMI PHARMACEUTICAL, published 2025).

Key:
B7-H1 = target: T1, B7-H1 (human, UniProt Q9NZQ7); test: ELISA, plate coated with 1 µg/mL recombinant human protein, anti-human IgG-HRP, OD450; antibody concentration not given
T1 construct: recombinant protein; also called PD-L1

[1] = target: T2, mouse CD47 on mouse red blood cells (mouse, UniProt Q61735 19-303); test: flow cytometry on mouse RBCs
T2 construct: whole, on cells; also called Mouse RBCs
T2 sequence (looked up): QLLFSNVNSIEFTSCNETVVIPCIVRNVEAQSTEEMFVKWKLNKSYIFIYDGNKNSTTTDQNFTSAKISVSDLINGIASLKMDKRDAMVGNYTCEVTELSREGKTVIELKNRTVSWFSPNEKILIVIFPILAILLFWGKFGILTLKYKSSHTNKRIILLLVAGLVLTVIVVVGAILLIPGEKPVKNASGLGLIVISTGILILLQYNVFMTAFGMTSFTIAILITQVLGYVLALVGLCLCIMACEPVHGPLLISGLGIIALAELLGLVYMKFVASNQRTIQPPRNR
Procedure: The species specificity of the chimeric anti-human CD47 monoclonal antibodies was determined by flow cytometer FACS. Normal human RBCs internally donated, cynomolgus RBCs, rat RBCs and mouse RBCs were collected, washed once with cold PBS (GIBCO, Catalog number 14190) containing 2% FBS (Hyclone, Catalog number SH30084.03). The RBCs (2×10⁶ cells per tube) were resuspended in 100 μL of cold PBS containing 2% FBS, and the serially diluted anti-human CD47 antibody samples and the control CC-90002 and the isotype control were added therein. Flow tubes were incubated on ice for 30 minutes. The cells were washed twice with PBS containing 2% FBS. Then the pellets were resuspended in 200 μL of cold PBS containing 2% FBS and FITC-labeled anti-human IgG antibody diluted 1:1000 (Beijing Zhongshan Golden Bridge, Catalog number ZF0306), incubated on ice for 30 minutes in the dark. The cells were washed twice with PBS containing 2% FBS, then resuspended in 500 μL of cold PBS. The cell suspension obtained was detected and analyzed on a flow cytometer (BD, FACS Calibur), and the fluorescence intensities of the RBCs were read.

[2] = target: recombinant cynomolgus CD47 (cynomolgus, UniProt A0A2K5X523 19-139); test: ELISA, plate coated with 1 µg/mL recombinant cynomolgus CD47, anti-human IgG-HRP, OD450
Procedure: (§1) Species specificity of the chimeric anti-human CD47 mAbs was determined by ELISA. A 96-well high-adsorption ELISA plate was coated with 1 μg/mL of the recombinant human CD47, cynomolgus CD47, rat CD47 and mouse CD47, at 100 μL per well using carbonate buffer solution, pH=9.6 at 4° C. overnight. The plate was washed 5 times with PBST, and then blocked using PBST with 1% BSA, 300 μL/well, and incubated at 25° C. for 1 hour, and then washed 5 times with PBST. The chimeric anti-human CD47 antibody samples serially diluted in PBST with 1% BSA were added, 100 μL/well, incubated at 25° C. for 1 hour, and then washed 5 times with PBST. The horseradish peroxidase-labeled anti-human IgG antibody (Chemicon, catalog number AP309P) diluted 1:10000 in PBST with 1% BSA was then added, 100 μL per well, and incubated at 25° C. for 1 hour. The plate was washed 5 times with PBST. The colorimetric substrate TMB was added, 100 μL/well, and developed at room temperature for 10 minutes. 1M H₂SO₄ was added, 100 μL/well, to stop the development. The absorbance at 450 nm was read on a microplate reader.

recombinant mouse CD47 = target: T3, recombinant mouse CD47 (mouse, UniProt Q61735 19-140, limits assumed); test: ELISA, plate coated with 1 µg/mL recombinant mouse CD47, anti-human IgG-HRP, OD450
T3 sequence (looked up): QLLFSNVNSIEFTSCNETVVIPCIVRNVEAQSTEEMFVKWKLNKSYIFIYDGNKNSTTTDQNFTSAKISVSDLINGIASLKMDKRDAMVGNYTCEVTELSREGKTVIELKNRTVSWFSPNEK
Procedure: as §1

recombinant human CD47 = target: T4, recombinant human CD47 (human, UniProt Q08722 19-139); test: ELISA, plate coated with 1 µg/mL recombinant human CD47, OD450
T4 construct: also called antigen CD47
Procedure: A 96-well high-adsorption ELISA plate was coated with 1 μg/mL of the recombinant human CD47 (Sino Biological Inc.) at 100 μL per well using carbonate buffer solution, pH=9.6 at 4° C. overnight. The plate was washed 5 times with PBST, and then blocked using PBST with 1% BSA, 300 μL/well, and incubated at 25° C. for 1 hour, and then washed 5 times with PBST. The anti-human CD47 antibody samples and the control CC-90002 (a patent sequence from WO2016109415) were added, 100 μL/well, incubated at 25° C. for 1 hour, and then washed 5 times with PBST. The horseradish peroxidase-labeled anti-mouse IgG antibody (Abcam, catalog number Ab7068) diluted 1:10000 in PBST with 1% BSA was then added, 100 μL per well, and incubated at 25° C. for 1 hour. The plate was washed 5 times with PBST. The colorimetric substrate TMB was added, 100 μL/well, and developed at room temperature for 10 minutes. 1M H₂SO₄ was added, 100 μL/well, to stop the development. The absorbance at 450 nm was read on a microplate reader.

T4 sequence (Q08722 19-139 limits assumed): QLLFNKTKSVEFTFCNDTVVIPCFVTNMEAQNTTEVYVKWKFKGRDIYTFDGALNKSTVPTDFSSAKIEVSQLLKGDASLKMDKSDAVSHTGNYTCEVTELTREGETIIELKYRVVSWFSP
T1 sequence (Q9NZQ7 19-238 limits assumed): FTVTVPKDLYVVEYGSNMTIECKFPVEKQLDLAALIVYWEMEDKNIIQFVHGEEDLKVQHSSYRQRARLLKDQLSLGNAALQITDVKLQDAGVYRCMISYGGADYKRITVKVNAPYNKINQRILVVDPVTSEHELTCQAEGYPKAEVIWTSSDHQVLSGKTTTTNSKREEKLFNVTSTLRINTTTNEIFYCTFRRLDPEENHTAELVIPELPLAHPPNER

binding result (B7-H1): no binding
binding result [1]: no binding
EC50 [2]: 0.089 nM
binding result (recombinant mouse CD47): no binding (tested: about 20 nM)
EC50 (recombinant human CD47): 0.026 nM
B1: chimeric anti-human CD47 monoclonal antibody mAb-18-5 (antibody, human IgG1, kappa)
heavy: not shown
light: DIVMTQSQKFMSTSVGDRVSITCKASQNVRTSIAWYQQKSGQSPKTLIYLASNRHTGVPDRFTGSGSGTDFTLTISNVQSEDLADYFCLQHWNYPFTFGSGTKLEIKRTVAAPSVFIFPPSDEQLKSGTASVVCLLNNFYPREAKVQWKVDNALQSGNSQESVTEQDSKDSTYSLSSTLTLSKADYEKHKVYACEVTHQGLSSPVTKSFNRGEC
